Data from paper PMC11984883, “ACAT1‐Mediated ME2 Acetylation Drives Chemoresistance in Ovarian Cancer by Linking Glutaminolysis to Lactate Production” (Advanced Science, 2025).
Blank lines part the entries; values can stand above or below the molecule they belong to.

Assays:
ME2 (malic enzyme 2) = biological target: T1, ME2 (malic enzyme 2) (Homo sapiens, UniProt P23368); assay: […]-pyruvate binding to Flag-bead-bound ME2, scintillation counting
T1 construct: for the malate assay purified from overexpressing 293T cells treated with cisplatin

[1] = biological target: T2, ME2-flag recombinant protein (WT) (UniProt P23368 19-584); assay: pull-down; ME2-flag recombinant protein bound to Flag beads, incubated with recombinant ACAT1 or SIRT4 with or without pyruvate (increasing concentrations) for 20 min at room temperature, unbound protein washed out, western blot; settings: both partners purified
T2 construct: malic enzyme 2 (ME2), wild type; If it was made in mammalian cells, the mitochondrial transit peptide is probably removed (surmise); also called purified ME2-flag protein; ME2-flag WT; not shown: Flag, C-terminal, kept

[2] = biological target: T3, ME2-flag R511A recombinant protein (UniProt P23368 19-584, R511A); assay: as above; settings: both partners purified
T3 construct: Same construct as m7, with the mutation; also called ME2 R511A; source: recombinant, purified; not shown: Flag, C-terminal, kept
T3 sequence (P23368 19-584 R511A): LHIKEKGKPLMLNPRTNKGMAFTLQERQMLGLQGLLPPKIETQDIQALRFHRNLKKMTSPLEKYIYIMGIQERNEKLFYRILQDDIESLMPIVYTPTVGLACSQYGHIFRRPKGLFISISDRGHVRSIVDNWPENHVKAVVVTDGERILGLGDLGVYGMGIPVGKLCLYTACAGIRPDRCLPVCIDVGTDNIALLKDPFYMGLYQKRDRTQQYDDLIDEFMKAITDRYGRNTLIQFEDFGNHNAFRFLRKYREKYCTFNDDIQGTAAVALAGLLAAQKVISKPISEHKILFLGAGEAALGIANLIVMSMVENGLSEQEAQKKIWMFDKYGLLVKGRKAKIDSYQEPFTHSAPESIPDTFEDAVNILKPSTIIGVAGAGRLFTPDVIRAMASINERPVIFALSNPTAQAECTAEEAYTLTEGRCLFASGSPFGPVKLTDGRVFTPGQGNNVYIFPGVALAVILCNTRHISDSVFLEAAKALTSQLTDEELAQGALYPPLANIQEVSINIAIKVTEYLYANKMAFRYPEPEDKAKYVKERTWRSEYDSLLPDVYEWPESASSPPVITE

T2 sequence (P23368 19-584): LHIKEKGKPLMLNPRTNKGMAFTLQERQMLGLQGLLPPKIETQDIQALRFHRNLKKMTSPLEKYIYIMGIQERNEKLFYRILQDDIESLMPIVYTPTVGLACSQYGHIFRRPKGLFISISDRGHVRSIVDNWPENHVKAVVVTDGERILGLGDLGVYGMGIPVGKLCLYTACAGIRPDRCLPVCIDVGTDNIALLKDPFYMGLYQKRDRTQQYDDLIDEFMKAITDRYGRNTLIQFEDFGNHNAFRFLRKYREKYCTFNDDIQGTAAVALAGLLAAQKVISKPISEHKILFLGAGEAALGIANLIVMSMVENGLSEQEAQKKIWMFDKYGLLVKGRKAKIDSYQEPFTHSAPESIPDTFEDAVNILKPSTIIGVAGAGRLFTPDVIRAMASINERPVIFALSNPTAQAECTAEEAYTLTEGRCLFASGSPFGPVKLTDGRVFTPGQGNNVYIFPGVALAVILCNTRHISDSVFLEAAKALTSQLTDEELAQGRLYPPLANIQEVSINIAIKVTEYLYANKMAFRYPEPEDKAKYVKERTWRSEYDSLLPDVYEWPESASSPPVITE
T1 sequence (P23368 19-584): as above

Kd (ME2 (malic enzyme 2)): ~6.17 µM
Molecule: CC(=O)C(=O)O [pyruvate]

binding result [1]: binds | binding result [2]: binds
B1: recombinant SIRT4 (enzyme, UniProt Q9Y6E7 29-314, looked up)
chain: IGLFVPASPPLDPEKVKELQRFITLSKRLLVMTGAGISTESGIPDYRSEKVGLYARTDRRPIQHGDFVRSAPIRQRYWARNFVGWPQFSSHQPNPAHWALSTWEKLGKLYWLVTQNVDALHTKAGSRRLTELHGCMDRVLCLDCGEQTPRGVLQERFQVLNPTWSAEAHGLAPDGDVFLSEEQVRSFQVPTCVQCGGHLKPDVVFFGDTVNPDKVDFVHKRVKEADSLLVVGSSLQVYSGYRFILTAWEKKLPIAILNIGPTRSDDLACLKLNSRCGELLPLIDPC
notes: SIRT4, recombinant protein; also called purified, recombinant SIRT4; source: recombinant, purified

binding result [1]: binds | binding result [2]: binds
B2: recombinant ACAT1 (enzyme, UniProt P24752 34-427, looked up)
chain: VSKPTLKEVVIVSATRTPIGSFLGSLSLLPATKLGSIAIQGAIEKAGIPKEEVKEAYMGNVLQGGEGQAPTRQAVLGAGLPISTPCTTINKVCASGMKAIMMASQSLMCGHQDVMVAGGMESMSNVPYVMNRGSTPYGGVKLEDLIVKDGLTDVYNKIHMGSCAENTAKKLNIARNEQDAYAINSYTRSKAAWEAGKFGNEVIPVTVTVKGQPDVVVKEDEEYKRVDFSKVPKLKTVFQKENGTVTAANASTLNDGAAALVLMTADAAKRLNVTPLARIVAFADAAVEPIDFPIAPVYAASMVLKDVGLKKEDIAMWEVNEAFSLVVLANIKMLEIDPQKVNINGGAVSLGHPIGMSGARIVGHLTHALKQGEYGLASICNGGGGASAMLIQKL
notes: acetyl-CoA acetyltransferase 1 (ACAT1), recombinant protein; also called purified, recombinant ACAT1; source: recombinant, purified
